Laboratory results from paper PMC11098746 (2024).

Target: FGFR4 ectodomain (Homo sapiens, UniProt P22455)
Assay: AVEXIS normalised luminescence

B1: 39 (protein)
chain: GTIEIKLSEFVGDSVNLAAKLHGFFLELNVNIAFTVICSNGMKALNGICIPCPLGSYNNINEYIKNNNIYECTLCHNNAATKNEGSTSISQCLCLPGYELNNNDLCVPCKRGTWKTKLSNSPCIFHCYPNSYSLVQGSRSEEESKCKCKRGFYFVSKDSINFCDNCNIGYFCPGGYKIGEKKCPKNTANIAQNNFAISSCKCDVGFEPFDSSNLNAYNFKNDPIFNDYKDFLDDVKSSQICVPCKEGFYKNTVSEEKCKRCSDNVYTDGLQSTSISNCKKCEKGYYLQSEDSCIICPDNHYCPGAYINDPKYAIYENQKIPCGDKSLTIPPNNLNVAHLNCLCKKGFEFIKTDDNEFDCLEVPKNYYKSHLGNKEKEPCPENSVTLYTQTKSKVKCLCMPGYYWDLKEFKCIKCPKGHYCPGGYLKNCFNNQNLHSCKPQKKKCPLKNSATQTKESFSQSSCLCDKGYTINKEELRECIPCPINTYKDVISNAECTKCLTPYTTDGQIGSTKEEDCTCSGGFFFLNHCLPCSDKNTYCKGGKMIVNNKNKAIHYGPSKCPPNTAVSFETERPYNKGFCVCQKGFKHVYTTSDFTKICAPCERGFFKTIIGDFSCESKCKPNSASFVGTIHETHCFCLENYYFKNGICLNCPDGAYCEGGFQKETLLYMKKNEYYLDTSKIKHIMPVPKENYALYKLKTNIYNTDWFIVECPIKEACLYNEKCHESMTNFLCGECKKGYTNNFAKLNLCIKCSGHIMN
modifications: bait human Fc-tagged dimer
binding score: 0.948

B2: 11 (protein)
chain: LKVPIENAPFVFNKKENDIKYFLDKETPDDFLSNNAYSLDITLENFPNPFFHPSLCNRYGFKFSYICDPNKILSRNIADQIEEILNYQRRNSKHFCVDKEVPYVLGVALINKLPYGISADTFASQIFEYWKLSNKDCNDGVLLFFVKEDTHFILKWKKGAQSIINFRTATSMNKAFNQYLRKYSLEYSILSAVKLTSQYLTEEIIPPTQTAQK
modifications: bait human Fc-tagged dimer
binding score: 1.58

B3: 69 (protein)
chain: IYYCNDNILENANNDDSTKDINNINKNSANKAKSEKTSNYNNDQYNIDDAYNEDEENDEEEGDDDENDHFEVPINCAGGNCFDSMDDINKIIDNKKKKMKYRRRRGKAIQIIKPNVNHAELIIIEENLEIFKRIDKPIAIVSVLGDMHTGKSFLLNLLNEHVIPDINKANKYIENGFKVGNDITASTYGIWIWSEPIRINVKKLKKIYEYINENFANFIKSYEYEKDEYNEEIIDLLNLYKTDDWISNVEELNLADTDEVNLILMDTQGLNSPNVNKRYDEILYALTNLISTDIIFLTMKMINNKDLEFIENIAKDANLFMLRAYTRSSGSTFSIKKNNFHKILDTLNNNLENNALILESIASKNLMWVVHDFSQRLDVRKGKLWLDILLNSDRRDLDIKYWKKIISNKAKDKHDAYTTKKQKIAYLTYNENSASGLLPNNNNNNNNANDASSNYKLNILYKNIDCVLLRNMYHNKEFDFTKANINDLNEEYKNDVLLLRYKIYLRALLFPKKMYSDVQINNIINKIRKEQKLREEQEKNKDNKKNDANNQANDLNSNKDETSGSQVTNRFMSGHDVYDFITFLVKSANQNLFTNVNQFFKHFKINRAEISRNDLIFLYKKYLLQFMENEDVEFISNLNDENDDLFLQKEGNNAAVNHDENSDADSLFNDHDENMQLKEHNIKDGEDNTHQKKDSYKLPPLLNEIKKYEELIREQILNIWYKYTESDFHDEEEKELIKDIENNLYERLDQIKIEMLELGEMNIRKFCKIACEDALQIVVEDIKMKSDQYPIKQKDLTTFFESVSYNLIKYLEKKLSKNSDKLDLIYYKDNICSPLINNAFQEFYFLKKKNIALNENRLKSYFSNAVEKGKEVFEVLAENTENIAEYFKNKNMFYTVLDKWTSEAINTYTLTLSDFAKEEKEINDEYLNVLNNDIKLLKQKAMEKWHNHCRDKTSALYNMHKSNLKKNFLENFNFPLDELVLQDIFLNLKGQEELKYMDIYCANEDSWNSEYKNFLKLTDEIFQFIKDENLKAIQITCQQPLDELKNGIKGEIHKYYLWSSLKSTLYNRALIVLSSNIENIYIKNQRENKIQSNLDEKYNNKNKNYKRISKDLMSKVINRWLNNDIYNVYYP
modifications: bait human Fc-tagged dimer
binding score: 0.719

B4: 62 (protein)
chain: EFKRKQKVEINSLQTNKNNDNIREEKIKGDVESQPDVDGDTCVIFSSSEGNSRNCWCPRGYILCSEEDVLDVQGKLNEIKNKHERSLVTPLWMKRLCDNSNDVGFKSMSVVIDYELAVLCKDGSNKDYADFEIIGASGYITGEEMIEEQKRNPWYVPRKCTVNNFYLCRKVENDNVNCAYTPWSDWSACKNNAQKRYRKVRRSNQNNENFCLWNDKIVPRNIMEQTRSC
modifications: bait human Fc-tagged dimer
binding score: 1.47

B5: 14 (protein)
chain: KNINLNDEGKKKQSGIINENEDGKNNKANNNKKVQHNKINRKGNNAVTKKTDEHKNDGDAENKKNGEHKNDGDGKNKKNGEHKNDGDGKNKKMDEHLYDIDGENKKNGEHLYDVDGENKKNGEHLYDIDGENKKNGEHLYDIDGENKKTDEHLYDVDGGKNNILEYNNIDQHNEFPESLENDNSYDKLFDDVELRDIIHNEKFFENLKNVNNNDVHNFLLVDKEMERRKEEEKKKSRKLEEDEEDDEDEEEDNDEKWKEENKNNAASSSSSSSNNFNKNYDIYDNRDLYNYDNLVDITQEEHINVPNINDEINEGRKHDKEDFLIFEKRLNEAEDRNDASDGDNKMEDLINNHFDDSGDNGAYENIQVKKELYNKNEKIIKGRDNNLNDGDIHMNKNNAANKLNNNNNNNNNDNNMNSEMKYKTFKEEYEEQILSKP
modifications: bait human Fc-tagged dimer
binding score: 0.821

B6: 82 (protein)
chain: GLCKPCTLENHYCEGGLESDITFNNKLIKGKFHTLPKKCPRGLGIPNIIKERNSINNCLCIHGKVQRTTENKNVECFPCPPNTFKENEYDNSCSGACPPFSTTFVGSSYENQCFCKNNYYLVSTDDENDANGNSINNNKNIYNNNNIYNNNNNNNNNNNNNFNNKADVKKKSCKICPIGAICNRGFNIYIYLKLLNDRSYNNINVIDHETPFPKYGYYAVYREKTNPAKSWDTLDDSAILNYVYPYHKLLLFIQKNIQKGNYFFLEKGNKFFLNDDFVEKMNEKSKYEEENANKFVTKSEIIHNVNTNNLKGKHNTLNNNNNNNNINKASSFLNQNNYNNDIIQLSSYENNPFKNLASTSEVSSNNNVISFIQNNDKTNNAANDNNIENLVDIFNKYVQEAKELQIQNRKFERIPDIHPCTIPNRCLGTLINLCSDGSTGYQCNNCAKNYDMSYFKSKCKKCQNLFYE
modifications: bait human Fc-tagged dimer
binding score: 1.25

B7: 73 (protein)
chain: NNIKLNDKENINFESYFNKRTNEENVLNKNVAKEMGDTFVAHKAIELNINHHHVNNDKEFNNNNNNKHQPYYHNEHDKKFSESLKAHMDHLKILNNDLKQHIDKKERNEIYENNDLKKYIIKEIQNNKYLNKEKKSSEDIQILEEHSKKLQKEIHEWLESVNNIEEKSNILKNIKSQLLNNIASLNHALSEEIKNINDIKELQKQQNDLFSENWLYFLPSSSDYLLNEKKKNLYDNQDNSMKDDINNNDKYNIFNYLQNVQDKDNQYEVMKQDNNNIHSGSS
modifications: bait human Fc-tagged dimer
binding score: 198

B8: 63 (protein)
chain: FRGNNGHNSASSLYNGAQFIEQLNNAFTSAFLESQSMNKIGDDLAETISNELVSVLQKNSPTFLESSFDIKSEVKKHAKSMLKELIKVGLPSFENLVAENVKPPKVDPATYGIIVPVLTSLFNKVETAVGAKVSDEIWNYNSPDVSESEESLSDDFFD
modifications: bait human Fc-tagged dimer
binding score: 1.23

B9: 29 (protein)
chain: QNYWEHPYQNSDVYRPINEHREHPKEYEYPLHQEHTYQQEDSGEDENTLQHAYPIDHEGAEPAPQEQNLFSSIEIVERSNYMGNPWTEYMAKYDIEEVHGSGIRVDLGEDAEVAGTQYRLPSGKCPVFGKGIIIENSNTAFLTPVATGNQYLKDGGFAFPPTEPLMSPMTLDEMRHFYKDNKYVKNLDELTLCSRHAGNMIPDNDKNSNYKYPAVYDDKDKKCHILYIAAQENNGPRYCNKDESKRNSMFCFRPAKDISFQNYAYLSKNVVDNWEKVCPRKNLQNAKFGLWVDGNCEDIPHVNEFPAIDLFECNKLVFELSASDQPKQYEQHLTDYEKIKEGFKNKNAAMIKSAFLPTGAFKADRYKSHGKGYNWGNYNTETQKCEIFNVKPTCLINNAAYIATTALSHPIEVENNFPCSLYKDEIMKEIERESKRIKLNDNDDEGNKKIIAPRIFISDDKDSLKCPCDPEMVSNSACRFFVCKCVERRAEVTSNNEVVVKEEYKDEYADIPEHKPT
modifications: bait human Fc-tagged dimer
binding score: 1.43

B10: 48 (protein)
chain: GCIKLKTSYKHEPILLLKNDERIISLNKIIPYLTEEVFISKDNIMTKINVENNICIELIKKHEILNTPIEHFFHFTNREYTIDLRNNDNIYNYAKRILNNKLDFELCNKILSFTIPINYNICSFPSYHNYFLYINYLKDVKIELIISALEKAKFLFLKIPNTFNLNTAHANFNDNDYIIEKGILENDLIKIDISKIIHRYICKKYYLYKSDEQINDDDLRQINNNNANNDISDKEIKMVLMTSHTLSDIIIFPSIIQNVQALKHYKNIKNVVKLKKKIKKRYTEWENWAPCYNVCNNNFAYKCRYYKCTTENQEFCDQNFHMNFAECPFTPCEDAIKKENEKKEIEKDKNKAIIINHENNRDQEGPIDDETMLRYRKNKKISFFMWIINNKK
modifications: bait human Fc-tagged dimer
binding score: 0.752

B11: 54 (protein)
chain: DQLDMGSVHNNNAVVGNSASHSPSSSSSSPSSSSSSSSSSPSASSSSSSSSPASSSSSPSSTSDDSKNAALDKIDEELQKKKKNEKL
modifications: bait human Fc-tagged dimer
binding score: 0.958

B12: 81 (protein)
chain: EFVKGSYESKGYPLIHLMNNNEYTGSANNFIKNNLINLLYIYKDVKFDEEKTLGIDSFLDIEDDTKIERLIKEKMLYINKYINSRQMIKYSGFIYLYEIIEKKNFYFLLHFLMTNNNNGLIIILPEDMYINVDEYYRINKINKLNDQNKKNKVVSQDLLEKRIMFVQSLILNMKLQQSIYFIKNNKDIEKIYENYQSKFAYFDLTRNVAISPISKIQNVYKMNSKSLYYFLNKNNNIHINTIFNKQQDNQAFLLTKQKTIIICADFNVFNIFSDLPSNTAFTNSNLITIQNLIKLFYDVYNKEQVNYNILFFFTNYYYGIQDFLNSINVIFKENIEFVICLDNLNNADFYIYESNKAQPQNVQAFYRILNNIVKGSIKKNVQMVNEKIKIHSKHLPSLHEYFVLNKINSFSLSSSKKNNNMIFLNKFPMLQPKLNIQNVKNNIAIIFKSLYLYMTQKKTDQKENTQQEQSIEKNEKEKSMLTYINKNMASNDDMNTIDYNLNKYNKFFIYKEDTLKLFNYFKTIINSNIADTNFLIKDYKLTTDKKQKFFYQKYAHVTFSMAISYVFH
modifications: bait human Fc-tagged dimer
binding score: 0.817

B13: 64 (protein)
chain: RMNVVSHNSMKKVGEEGKDEKIISCVVEYVIKGDLSIDDGDFCDSNSICSNNPGLCDNGQVVVPGDYCSNYYDITLVVEESSFVQKDYWLKGTIPFLESMVFNSNVAKDKAHMSVVLFAGKQRVVVPFTDESSQDKNMLLEKINSIDEGIATSSDTLYVNALKYAIENVIFGDGTRKDAPKVAVLFYYGFDYGANKNMIPDVVQTYKEQNVKLIIVGIALGIRDNAYLLADCSIGDENCVNVVFKPWDFVIPAAADVNQKICDKNKA
modifications: bait human Fc-tagged dimer
binding score: 0.876
